Measurements: patent US20230303695A1 (SHANGHAI XBH BIOTECHNOLOGY, published 2023)

T1: recombinant human IGSF8 extracellular domain tagged by a human Fc region (IGSF8-hFc) (human, UniProt Q969P0 28-579, biotin label in Examples 17, 18 and 28 (site not given))
T1 construct: also called IGSF8-Fc fusion protein; IGSF8-hFc-biotin; not shown: human Fc region
T1 sequence: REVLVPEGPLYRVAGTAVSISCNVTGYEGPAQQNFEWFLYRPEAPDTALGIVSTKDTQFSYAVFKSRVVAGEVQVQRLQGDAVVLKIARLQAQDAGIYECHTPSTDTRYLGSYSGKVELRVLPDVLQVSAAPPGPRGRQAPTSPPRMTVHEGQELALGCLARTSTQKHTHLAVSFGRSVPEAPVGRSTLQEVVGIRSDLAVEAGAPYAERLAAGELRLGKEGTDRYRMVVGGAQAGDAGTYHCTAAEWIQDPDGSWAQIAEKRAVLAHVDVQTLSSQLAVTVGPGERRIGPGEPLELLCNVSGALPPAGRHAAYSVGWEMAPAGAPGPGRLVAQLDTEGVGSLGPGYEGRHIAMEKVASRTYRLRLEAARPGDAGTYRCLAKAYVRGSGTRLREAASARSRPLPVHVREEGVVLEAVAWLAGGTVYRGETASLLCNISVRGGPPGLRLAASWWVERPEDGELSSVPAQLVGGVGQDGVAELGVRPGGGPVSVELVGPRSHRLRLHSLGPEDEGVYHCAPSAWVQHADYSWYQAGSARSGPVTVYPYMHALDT


Molecular target: T1, recombinant human IGSF8 extracellular …
Experiment: SPR, Ab captured
Procedure: The binding affinities of the L1 and L2 antibodies to IGSF8 recombinant protein were determined by surface plasmon resonance (SPR). Briefly, anti-human Fab antibody was imobilized on acarboxyl-derivatized SPR chip surface, and the antibodies were captured on the resulting surface at 5 μg/ml for 30 seconds.

Binder | Kd [nM] | koff [s⁻¹] | kon [M⁻¹ s⁻¹]
L1-02 (antibody, V domains shown) VH: QVQLVESGGGVVQPGRSLRLSCAASGFTFSTYGMHWVRQAPGKGLEWVAVIWDDGSYKYYGDSVKGRFTISRDNSKNTLYLQMNSLRAEDTAVYYCARDGSGWGYAFDIWGQGTMVTVSS VL: DIQLTQSPSSLSASVGDRVTITCQASQDISKPLNWYQHKPGKAPNPLVFDAANLETGVPPRFSATGSGTDFSLTITSLQPEDFATYYCQQYDSFPYTFGQGTRLDIK | 4.22 | 0.00127 | 300000
L2-08 (antibody, V domains shown) VH: EVQLVESGGGLEQPGGSLRLSCAASGFTFRDYAMTWVRQAPGKGLEWVSSISGSGGSTYYADSVKGRFTISRDNSKNTLYLQMNSLRAEDTAIYYCARGEYSSGWPSWFDPWGQGTLVTVSS VL: DIQMTQSPSSLSASVGDRVTITCRASRTVGTFLNWYQQKPGKAPKALILGVSILEGGVPSRFSGSGSGTDFTLTISSLQPEDIATYYCQQSHDVPRTFGQGTKVEIK | 0.869 | 0.000112 | 129000
L2VH-R30S (antibody, V domains shown) VH: EVQLVESGGGLEQPGGSLRLSCAGSGFTFSDYAMTWVRQAPGKGLEWVSSISGSGGNTYYADSVKGRFTISRDNSKNTLYLQMNSLRAEDTAIYYCARGEYSSGWPSWFDPWGQGTLVTVSS VL: EIVLTQSPSSLSASVGDRVTISCRASRTVGTFLNWYQQRPGKPPQALILGVSILEGGVSSRFSGAGSGTEFSLTISSLQPEDIGTYYCQQSHDVPRTFGQGTKVDLR | 146 | 0.00165 | 11400
L2VH-T35S (antibody, V domains shown) VH: EVQLVESGGGLEQPGGSLRLSCAGSGFTFRDYAMSWVRQAPGKGLEWVSSISGSGGNTYYADSVKGRFTISRDNSKNTLYLQMNSLRAEDTAIYYCARGEYSSGWPSWFDPWGQGTLVTVSS VL: EIVLTQSPSSLSASVGDRVTISCRASRTVGTFLNWYQQRPGKPPQALILGVSILEGGVSSRFSGAGSGTEFSLTISSLQPEDIGTYYCQQSHDVPRTFGQGTKVDLR | 22.8 | 0.00139 | 61100
L2VL-S52V (antibody, V domains shown) VH: EVQLVESGGGLEQPGGSLRLSCAGSGFTFRDYAMTWVRQAPGKGLEWVSSISGSGGNTYYADSVKGRFTISRDNSKNTLYLQMNSLRAEDTAIYYCARGEYSSGWPSWFDPWGQGTLVTVSS VL: EIVLTQSPSSLSASVGDRVTISCRASRTVGTFLNWYQQRPGKPPQALILGVVILEGGVSSRFSGAGSGTEFSLTISSLQPEDIGTYYCQQSHDVPRTFGQGTKVDLR | 64.5 | 0.000806 | 12500
L2VL-I53S (antibody, V domains shown) VH: EVQLVESGGGLEQPGGSLRLSCAGSGFTFRDYAMTWVRQAPGKGLEWVSSISGSGGNTYYADSVKGRFTISRDNSKNTLYLQMNSLRAEDTAIYYCARGEYSSGWPSWFDPWGQGTLVTVSS VL: EIVLTQSPSSLSASVGDRVTISCRASRTVGTFLNWYQQRPGKPPQALILGVSSLEGGVSSRFSGAGSGTEFSLTISSLQPEDIGTYYCQQSHDVPRTFGQGTKVDLR | 1280 | 0.00173 | 1350
L2-03 (antibody, V domains shown) VH: EVQLVESGGGLEQPGGSLRLSCAGSGFTFRDYAMTWVRQAPGKGLEWVSSISGSGGSTYYADSVKGRFTISRDNSKNTLYLQMNSLRAEDTAIYYCARGEYSSGWPSWFDPWGQGTLVTVSS VL: EIVLTQSPSSLSASVGDRVTISCRASRTVGTFLNWYQQRPGKPPQALILGVSILEGGVSSRFSGAGSGTEFSLTISSLQPEDIGTYYCQQSHDVPRTFGQGTKVDLR | 3.27 | 0.000465 | 142000
L2-07 (antibody, V domains shown) VH: EVQLVESGGGLEQPGGSLRLSCAASGFTFRDYAMTWVRQAPGKGLEWVSSISGSGGSTYYADSVKGRFTISRDNSKNTLYLQMNSLRAEDTAIYYCARGEYSSGWPSWFDPWGQGTLVTVSS VL: DIQMTQSPSSLSASVGDRVTITCRASRTVGTFLNWYQQKPGKAPKALILGVSILEGGVPSRFSGSGSGTDFTLTISSLQPEDIGTYYCQQSHDVPRTFGQGTKVEIK | 1.16 | 0.000129 | 111000
L2-05 (antibody, V domains shown) VH: EVQLVESGGGLEQPGGSLRLSCAASGFTFRDYAMTWVRQAPGKGLEWVSAISGSGGSTYYADSVKGRFTISRDNSKNTLYLQMNSLRAEDTAIYYCARGEYSSGWPSWFDPWGQGTLVTVSS VL: EIVLTQSPSSLSASVGDRVTISCRASRTVGTFLNWYQQRPGKPPQALILGVSILEGGVSSRFSGAGSGTEFSLTISSLQPEDIGTYYCQQSHDVPRTFGQGTKVDLR | 2.63 | 0.000112 | 42700
L2VH-S50A (antibody, V domains shown) VH: EVQLVESGGGLEQPGGSLRLSCAGSGFTFRDYAMTWVRQAPGKGLEWVSAISGSGGNTYYADSVKGRFTISRDNSKNTLYLQMNSLRAEDTAIYYCARGEYSSGWPSWFDPWGQGTLVTVSS VL: EIVLTQSPSSLSASVGDRVTISCRASRTVGTFLNWYQQRPGKPPQALILGVSILEGGVSSRFSGAGSGTEFSLTISSLQPEDIGTYYCQQSHDVPRTFGQGTKVDLR | 23.7 | 0.000486 | 20500
L2VL-G56S (antibody, V domains shown) VH: EVQLVESGGGLEQPGGSLRLSCAGSGFTFRDYAMTWVRQAPGKGLEWVSSISGSGGNTYYADSVKGRFTISRDNSKNTLYLQMNSLRAEDTAIYYCARGEYSSGWPSWFDPWGQGTLVTVSS VL: EIVLTQSPSSLSASVGDRVTISCRASRTVGTFLNWYQQRPGKPPQALILGVSILESGVSSRFSGAGSGTEFSLTISSLQPEDIGTYYCQQSHDVPRTFGQGTKVDLR | 29.1 | 0.00311 | 107000
L2-09 (antibody, V domains shown) VH: EVQLVESGGGLEQPGGSLRLSCAASGFTFRDYAMTWVRQAPGKGLEWVSSISGSGGSTYYADSVKGRFTISRDNSKNTLYLQMNSLRAEDTAIYYCARGEYSSGWPSWFDPWGQGTLVTVSS VL: DIQMTQSPSSLSASVGDRVTITCRASRTVGTFLNWYQQKPGKAPKALILHTSILEGGVPSRFSGSGSGTDFTLTISSLQPEDIGTYYCQQSHDVPRTFGQGTKVEIK | 0.475 | 7.15e-05 | 151000
L2-02 (antibody, V domains shown) VH: EVQLVESGGGLEQPGGSLRLSCAGSGFTFRDYAMTWVRQAPGKGLEWVSSISGSGGNTYYADSVKGRFTISRDNSKNTLYLQMNSLRAEDTAIYYCARGEYSSGWPSWFDPWGQGTLVTVSS VL: EIVLTQSPSSLSASVGDRVTISCRASRTVGTFLNWYQQRPGKPPQALILHTSILEGGVSSRFSGAGSGTEFSLTISSLQPEDIGTYYCQQSHDVPRTFGQGTKVDLR | 4.85 | 0.000131 | 27100
L2-04 (antibody, V domains shown) VH: EVQLVESGGGLEQPGGSLRLSCAASGFTFRDYAMTWVRQAPGKGLEWVSSISGSGGSTYYADSVKGRFTISRDNSKNTLYLQMNSLRAEDTAIYYCARGEYSSGWPSWFDPWGQGTLVTVSS VL: EIVLTQSPSSLSASVGDRVTISCRASRTVGTFLNWYQQRPGKPPQALILGVSILEGGVSSRFSGAGSGTEFSLTISSLQPEDIGTYYCQQSHDVPRTFGQGTKVDLR | 2.98 | 0.000142 | 47600
L2-06 (antibody, V domains shown) VH: EVQLVESGGGLEQPGGSLRLSCAASGFTFRDYAMTWVRQAPGKGLEWVSSISGSGGSTYYADSVKGRFTISRDNSKNTLYLQMNSLRAEDTAIYYCARGEYSSGWPSWFDPWGQGTLVTVSS VL: DIQMTQSPSSLSASVGDRVTITCRASRTVGTFLNWYQQKPGKAPKALILGVSILEGGVPSRFSGSGSGTDFTLTISSLQLEDFATYYCQQSHDVPRTFGQGTKVEIK | 5.45 | 0.000249 | 45700
L2VH-D31S (antibody, V domains shown) VH: EVQLVESGGGLEQPGGSLRLSCAGSGFTFRSYAMTWVRQAPGKGLEWVSSISGSGGNTYYADSVKGRFTISRDNSKNTLYLQMNSLRAEDTAIYYCARGEYSSGWPSWFDPWGQGTLVTVSS VL: EIVLTQSPSSLSASVGDRVTISCRASRTVGTFLNWYQQRPGKPPQALILGVSILEGGVSSRFSGAGSGTEFSLTISSLQPEDIGTYYCQQSHDVPRTFGQGTKVDLR | 465 | 0.00567 | 12200
L2VL-D93S (antibody, V domains shown) VH: EVQLVESGGGLEQPGGSLRLSCAGSGFTFRDYAMTWVRQAPGKGLEWVSSISGSGGNTYYADSVKGRFTISRDNSKNTLYLQMNSLRAEDTAIYYCARGEYSSGWPSWFDPWGQGTLVTVSS VL: EIVLTQSPSSLSASVGDRVTISCRASRTVGTFLNWYQQRPGKPPQALILGVSILEGGVSSRFSGAGSGTEFSLTISSLQPEDIGTYYCQQSHSVPRTFGQGTKVDLR | 68 | 0.00202 | 29700
L2VH-R98K (antibody, V domains shown) VH: EVQLVESGGGLEQPGGSLRLSCAGSGFTFRDYAMTWVRQAPGKGLEWVSSISGSGGNTYYADSVKGRFTISRDNSKNTLYLQMNSLRAEDTAIYYCAKGEYSSGWPSWFDPWGQGTLVTVSS VL: EIVLTQSPSSLSASVGDRVTISCRASRTVGTFLNWYQQRPGKPPQALILGVSILEGGVSSRFSGAGSGTEFSLTISSLQPEDIGTYYCQQSHDVPRTFGQGTKVDLR | 48.7 | 0.00248 | 51000
